Data reported in patent US20230192820A1 (published 2023).

Assays:
[1] = molecular target: SARS-CoV-2 spike (S) protein on virus or pseudovirus particles (SARS-CoV-2, UniProt P0DTC2 14-1273); assay: cell-based or functional assay
[2] = molecular target: SARS-CoV-2 S protein S1 subunit (amino acids 1-604), Myc/His tagged (SARS-CoV-2, UniProt P0DTC2 14-604)
[3] = molecular target: SARS-CoV-2 S protein RBD (amino acids 319-541) (SARS-CoV-2, UniProt P0DTC2 319-541)
[4] = molecular target: SARS-CoV S protein RBD (amino acids 270-510) (SARS-CoV (Urbani strain), UniProt P59594 270-510)

Binder | plaque reduction neutralization test (PRNT), EC50 [1] [mg/L] | EC50 [2] [nM] | neutralization of SARS-CoV-2 pseudovirus, IC50 [1] [mg/L] | Kd [3] [nM] | Kd [4] [nM]
MAb362 (antibody, V domains shown) VH: QVQLVESGGGVVQPGRSLRLSCAASGFSFSSYGMHWVRQAPGKGLEWVAVIWYDGSDKYYADSVKGRFTISRDNSKNTLYLQLNSLRAEDTAIYYCARERYFDWIFDFWGQGTLVTVSS VL: not shown | ~5 | ~40 |  |  | 
MAb362 IgG1 (antibody, V domains shown) VH: QVQLVESGGGVVQPGRSLRLSCAASGFSFSSYGMHWVRQAPGKGLEWVAVIWYDGSDKYYADSVKGRFTISRDNSKNTLYLQLNSLRAEDTAIYYCARERYFDWIFDFWGQGTLVTVSS VL: not shown |  |  | 58.7 | 13 | 1.3
MAb362 IgA1 (monomeric) (antibody, V domains shown) VH: QVQLVESGGGVVQPGRSLRLSCAASGFSFSSYGMHWVRQAPGKGLEWVAVIWYDGSDKYYADSVKGRFTISRDNSKNTLYLQLNSLRAEDTAIYYCARERYFDWIFDFWGQGTLVTVSS VL: not shown |  |  | 1.26 | 0.3 | 1.4
